What all share (assay): cell-based or functional assay
The target of test [1] is CD3 (on T cells of human PBMCs) (human).
The target of a further test is human GLP-1R (human) (UniProt P43220).
Test [2] deals with lactating receptors of the Nb2 cells (rat) (UniProt P05710).

Three substances from patent US20190184026A1 can be followed below.

Chain of lactating receptors of the Nb2 cells (rat) (P05710 20-610): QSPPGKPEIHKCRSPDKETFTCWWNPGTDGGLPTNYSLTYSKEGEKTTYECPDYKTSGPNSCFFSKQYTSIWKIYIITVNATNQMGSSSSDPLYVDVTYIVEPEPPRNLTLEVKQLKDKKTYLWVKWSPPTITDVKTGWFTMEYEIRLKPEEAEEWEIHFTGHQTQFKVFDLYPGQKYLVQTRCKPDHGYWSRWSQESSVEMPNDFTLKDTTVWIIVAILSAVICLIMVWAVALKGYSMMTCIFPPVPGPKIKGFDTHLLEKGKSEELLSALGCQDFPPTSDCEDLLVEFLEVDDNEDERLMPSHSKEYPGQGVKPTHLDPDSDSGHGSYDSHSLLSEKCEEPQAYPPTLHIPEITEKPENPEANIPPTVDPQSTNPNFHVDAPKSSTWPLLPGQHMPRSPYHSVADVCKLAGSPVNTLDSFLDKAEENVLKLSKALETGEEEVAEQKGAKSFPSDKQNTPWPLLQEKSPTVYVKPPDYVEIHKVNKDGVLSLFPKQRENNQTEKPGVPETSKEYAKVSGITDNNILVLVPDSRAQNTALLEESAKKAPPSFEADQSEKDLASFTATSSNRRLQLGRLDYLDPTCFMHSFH
Chain of human GLP-1R (human) (P43220 24-463): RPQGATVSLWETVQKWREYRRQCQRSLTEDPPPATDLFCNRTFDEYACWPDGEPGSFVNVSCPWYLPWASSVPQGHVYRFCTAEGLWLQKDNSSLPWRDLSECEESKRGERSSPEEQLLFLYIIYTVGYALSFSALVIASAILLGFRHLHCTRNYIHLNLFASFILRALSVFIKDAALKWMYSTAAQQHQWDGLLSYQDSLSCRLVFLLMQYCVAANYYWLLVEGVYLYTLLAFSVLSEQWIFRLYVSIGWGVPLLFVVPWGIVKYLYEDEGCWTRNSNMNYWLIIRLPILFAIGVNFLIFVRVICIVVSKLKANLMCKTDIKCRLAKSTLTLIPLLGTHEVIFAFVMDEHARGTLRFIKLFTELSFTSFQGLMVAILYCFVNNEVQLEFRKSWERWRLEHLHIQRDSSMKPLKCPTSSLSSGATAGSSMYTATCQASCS

Turning to anti-CD3 monoclonal antibody OKT3, in test [1], the EC50 of activation of human PBMCs (CCK-8, absorbance at 492 nM) came to 0.015 nM.

Regarding “duraglutide (Eli Lilly, Cat. No. 9301897) (Fc fusion)”, the in vitro activity EC50 (CRE-Luc reporter, CHO-K1 cells with human GLP-1R) with human GLP-1R (human) was 0.0299 nM.

As to “hGH (from UniProt P01241 27-217) (ligand)”, in test [2], the EC50 (Nb2 cell proliferation, CCK-8) was found to be 0.00694 nM.
